One test addresses MakA^W243D. Briefly: SEC. On the technique in general: In gel filtration, larger molecules generally elute earlier.
Test [1] deals with Motility associated killing factor A (MakA), wild type. The experiment in a line: SEC.

Among the data in article PMC9536202 are percent oligomer and percent monomer values, retold here.

The substance MakA^W243D (natural protein) gave a percent oligomer with MakA^W243D of 100%. For “Motility associated killing factor A (MakA), wild type (natural protein)”, in test [1], the percent monomer is 80% and the percent oligomer amounted to 20%.
